Target: Prp43 (yeast) (UniProt P53131)
Sequence of UniProt P53131 (P53131 whole entry): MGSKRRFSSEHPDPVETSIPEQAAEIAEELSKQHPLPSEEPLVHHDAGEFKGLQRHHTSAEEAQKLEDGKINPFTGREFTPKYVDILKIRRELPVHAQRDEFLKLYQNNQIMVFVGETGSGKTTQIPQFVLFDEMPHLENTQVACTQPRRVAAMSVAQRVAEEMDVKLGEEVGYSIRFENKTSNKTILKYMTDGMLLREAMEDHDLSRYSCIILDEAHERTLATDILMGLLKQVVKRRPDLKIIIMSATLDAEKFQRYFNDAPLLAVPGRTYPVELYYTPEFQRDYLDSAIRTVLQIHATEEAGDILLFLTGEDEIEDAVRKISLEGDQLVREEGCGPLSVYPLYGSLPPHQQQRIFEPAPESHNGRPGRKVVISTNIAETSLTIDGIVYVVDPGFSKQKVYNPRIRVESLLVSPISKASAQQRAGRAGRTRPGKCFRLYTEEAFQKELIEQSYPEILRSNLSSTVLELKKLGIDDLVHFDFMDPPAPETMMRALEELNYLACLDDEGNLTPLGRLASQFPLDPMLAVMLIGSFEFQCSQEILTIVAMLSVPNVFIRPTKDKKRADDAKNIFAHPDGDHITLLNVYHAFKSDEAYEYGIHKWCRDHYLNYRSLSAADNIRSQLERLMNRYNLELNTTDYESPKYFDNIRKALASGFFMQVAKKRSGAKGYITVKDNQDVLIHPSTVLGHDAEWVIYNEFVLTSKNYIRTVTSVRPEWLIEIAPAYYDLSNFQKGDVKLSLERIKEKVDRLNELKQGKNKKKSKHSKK

B1: Pfa1 full-length (Pfa1FL) (natural protein)
chain: MAKRHSHYQGSRRRHARGSNSKKAGRGNAKGIQGRKIKKKPTPTNSWHNSSIPLGEGDLDDVGADFNPGRAFISPKTIEDYYFGRDAKSRSMKMGGLRPGNRYDSSTDLQAGRAAFRKRPMQFVKAKEVYDPSHNMIQKLRAKNETKNSEEIVEREADVFEEPGKMTSDVEYINNEDSENEDDDSQNSPSTDHSLSSNESKVEDGDLFFVDEEAQQSPDLTKIKRVCIEEIARPREVAIEFDPILTIGKVELSVSEGNESKEISVDVPNKGNKTYHPFAGYISNVLHGMHTSDSDNDELDYEIETENNSEPLYESSASSEVDQGFNYVGQRHNSRADNNLLPSPSPQLTEDIKCLSINGTKTFEGNNDNLPSPASEELEFGFKEEDFVINTNDIVVSNIRMGGVDNSYYLRCYRLLGDYDFHWIDQDLLTDFVVDELGLPEDRLPAYLNFIKNSLIPKIEPAEPTYSDIPISDSSDEGDSYEGDSYEDDEDMASSVVHSDIEEGLDDLIAYTLKHDTERFKTFETKSLETKGKGKKKKLLIDDALALDTETLETLQSKFSKRIETKAKKRKAKEDFIDQENRNSNDMLKKYPYGLHIQNIKDEFESFLSRNNDRLTFPPLDPHGNKTVMKIAKHYNMKSSKIGKANHTSVVVEKIKKTKWSSPNYSLIDQLMRQRPVFMRIDIRRPREEQAAFERTKTIRGKFHVKEGEIVGQNAPEIGNENIGRRMLEKLGWKSGEGLGIQGNKGISEPIFAKIKKNRSGLRHSES
With B1 as the binder, how does the catalytic efficiency of Prp43 ATPase (kcat/KM), Pfa1FL versus Pfa1GP read?
The catalytic efficiency of Prp43 ATPase (kcat/KM), Pfa1FL versus Pfa1GP was 3 fold.

Source: publication PMC5397206
